Consider 40 variants from the Human Domainome abundance scans (Beltran et al. 2025).

± gives the uncertainty stated by the source.

B1: TOX high mobility group box family member 3, residues 256 to 323; numbered along this chain, O15405 (parent)
chain: QKPVSAYALFFRDTQAAIKGQNPNATFGEVSKIVASMWDSLGEEQKQVYKRKTEAAKKEYLKALAAYR

The data set covers variants of B1. Kind of data set: abundance fitness (aPCA) (normalised: wild type 0, dead -1); higher = more abundant; growth selection in yeast, the domain comes from the species named. The settings on record: Homo sapiens.
In the case of QKPVSAYALFFRDTQAAIKGQNPNATFGEVLKIVASMWDSLGEEQKQVYKRKTEAAKKEYLKALAAYR [S31L], the abundance fitness is -0.637 ± 0.073. With QKPVSAYALFFRDTQAAIKGQNPNATFGEVKKIVASMWDSLGEEQKQVYKRKTEAAKKEYLKALAAYR [S31K], the abundance fitness came out at 0.116 ± 0.084. Under QKPVSAYALFFRDTQAAIKGQNPNATFGEVGKIVASMWDSLGEEQKQVYKRKTEAAKKEYLKALAAYR [S31G] stands -0.224 ± 0.057; under QKPVSAYALFFRDTQAAIKGQNPNATFGEVQKIVASMWDSLGEEQKQVYKRKTEAAKKEYLKALAAYR [S31Q], -0.063 ± 0.083.

As for QKPVSAYALFFRDTQAAIKGQNPNATFGEVDKIVASMWDSLGEEQKQVYKRKTEAAKKEYLKALAAYR [S31D], the abundance fitness was -0.105 ± 0.27. For the variant QKPVSAYALFFRDTQAAIKGQNPNATFGEVEKIVASMWDSLGEEQKQVYKRKTEAAKKEYLKALAAYR [S31E], the abundance fitness stood at 0.015 ± 0.082. In the case of QKPVSAYALFFRDTQAAIKGQNPNATFGEVRKIVASMWDSLGEEQKQVYKRKTEAAKKEYLKALAAYR [S31R], the abundance fitness was -0.062 ± 0.047. As for QKPVSAYALFFRDTQAAIKGQNPNATFGEVYKIVASMWDSLGEEQKQVYKRKTEAAKKEYLKALAAYR [S31Y], the abundance fitness is -0.162 ± 0.12. Under QKPVSAYALFFRDTQAAIKGQNPNATFGEVFKIVASMWDSLGEEQKQVYKRKTEAAKKEYLKALAAYR [S31F] stands -0.664 ± 0.12. On to QKPVSAYALFFRDTQAAIKGQNPNATFGEVIKIVASMWDSLGEEQKQVYKRKTEAAKKEYLKALAAYR [S31I], for which the abundance fitness was -0.583 ± 0.15. Take QKPVSAYALFFRDTQAAIKGQNPNATFGEVWKIVASMWDSLGEEQKQVYKRKTEAAKKEYLKALAAYR [S31W]: the abundance fitness was -0.696 ± 0.15.

For QKPVSAYALFFRDTQAAIKGQNPNATFGEVTKIVASMWDSLGEEQKQVYKRKTEAAKKEYLKALAAYR [S31T], the abundance fitness is -0.118 ± 0.08.

Regarding QKPVSAYALFFRDTQAAIKGQNPNATFGEVCKIVASMWDSLGEEQKQVYKRKTEAAKKEYLKALAAYR [S31C], the abundance fitness is -0.163 ± 0.072. With QKPVSAYALFFRDTQAAIKGQNPNATFGEVPKIVASMWDSLGEEQKQVYKRKTEAAKKEYLKALAAYR [S31P], the abundance fitness was -1 ± 0.22.

As to QKPVSAYALFFRDTQAAIKGQNPNATFGEVNKIVASMWDSLGEEQKQVYKRKTEAAKKEYLKALAAYR [S31N], the abundance fitness was -0.213 ± 0.16. Consider QKPVSAYALFFRDTQAAIKGQNPNATFGEVSIIVASMWDSLGEEQKQVYKRKTEAAKKEYLKALAAYR [K32I], for which the abundance fitness is -0.416 ± 0.14. Under QKPVSAYALFFRDTQAAIKGQNPNATFGEVSHIVASMWDSLGEEQKQVYKRKTEAAKKEYLKALAAYR [K32H] stands -0.286 ± 0.075. Under QKPVSAYALFFRDTQAAIKGQNPNATFGEVSSIVASMWDSLGEEQKQVYKRKTEAAKKEYLKALAAYR [K32S] stands -0.107 ± 0.053. Under QKPVSAYALFFRDTQAAIKGQNPNATFGEVSQIVASMWDSLGEEQKQVYKRKTEAAKKEYLKALAAYR [K32Q] stands -0.337 ± 0.097. With QKPVSAYALFFRDTQAAIKGQNPNATFGEVSWIVASMWDSLGEEQKQVYKRKTEAAKKEYLKALAAYR [K32W], the abundance fitness is -0.455 ± 0.14.

With QKPVSAYALFFRDTQAAIKGQNPNATFGEVSAIVASMWDSLGEEQKQVYKRKTEAAKKEYLKALAAYR [K32A], the abundance fitness was -0.048 ± 0.058. Under QKPVSAYALFFRDTQAAIKGQNPNATFGEVSMIVASMWDSLGEEQKQVYKRKTEAAKKEYLKALAAYR [K32M] stands -0.198 ± 0.069; under QKPVSAYALFFRDTQAAIKGQNPNATFGEVSTIVASMWDSLGEEQKQVYKRKTEAAKKEYLKALAAYR [K32T], -0.055 ± 0.065.

On to QKPVSAYALFFRDTQAAIKGQNPNATFGEVSLIVASMWDSLGEEQKQVYKRKTEAAKKEYLKALAAYR [K32L], for which the abundance fitness was -0.376 ± 0.054. QKPVSAYALFFRDTQAAIKGQNPNATFGEVSDIVASMWDSLGEEQKQVYKRKTEAAKKEYLKALAAYR [K32D]: the abundance fitness was -0.078 ± 0.075. With QKPVSAYALFFRDTQAAIKGQNPNATFGEVSNIVASMWDSLGEEQKQVYKRKTEAAKKEYLKALAAYR [K32N], the abundance fitness worked out at 0.214 ± 0.21. Consider QKPVSAYALFFRDTQAAIKGQNPNATFGEVSEIVASMWDSLGEEQKQVYKRKTEAAKKEYLKALAAYR [K32E], for which the abundance fitness is -0.167 ± 0.064. Under QKPVSAYALFFRDTQAAIKGQNPNATFGEVSRIVASMWDSLGEEQKQVYKRKTEAAKKEYLKALAAYR [K32R] stands -0.045 ± 0.057; under QKPVSAYALFFRDTQAAIKGQNPNATFGEVSYIVASMWDSLGEEQKQVYKRKTEAAKKEYLKALAAYR [K32Y], -0.662 ± 0.14; under QKPVSAYALFFRDTQAAIKGQNPNATFGEVSCIVASMWDSLGEEQKQVYKRKTEAAKKEYLKALAAYR [K32C], -0.289 ± 0.072. QKPVSAYALFFRDTQAAIKGQNPNATFGEVSPIVASMWDSLGEEQKQVYKRKTEAAKKEYLKALAAYR [K32P]: the abundance fitness was -0.966 ± 0.16. With QKPVSAYALFFRDTQAAIKGQNPNATFGETSKIVASMWDSLGEEQKQVYKRKTEAAKKEYLKALAAYR [V30T], the abundance fitness was -0.342 ± 0.13. Regarding QKPVSAYALFFRDTQAAIKGQNPNATFGEYSKIVASMWDSLGEEQKQVYKRKTEAAKKEYLKALAAYR [V30Y], the abundance fitness is -0.811 ± 0.17.

Consider QKPVSAYALFFRDTQAAIKGQNPNATFGEPSKIVASMWDSLGEEQKQVYKRKTEAAKKEYLKALAAYR [V30P], for which the abundance fitness is -0.776 ± 0.25.

On to QKPVSAYALFFRDTQAAIKGQNPNATFGERSKIVASMWDSLGEEQKQVYKRKTEAAKKEYLKALAAYR [V30R], for which the abundance fitness was -0.43 ± 0.062. As to QKPVSAYALFFRDTQAAIKGQNPNATFGEKSKIVASMWDSLGEEQKQVYKRKTEAAKKEYLKALAAYR [V30K], the abundance fitness was -0.702 ± 0.15. With QKPVSAYALFFRDTQAAIKGQNPNATFGEMSKIVASMWDSLGEEQKQVYKRKTEAAKKEYLKALAAYR [V30M], the abundance fitness is -0.162 ± 0.1.

With QKPVSAYALFFRDTQAAIKGQNPNATFGEWSKIVASMWDSLGEEQKQVYKRKTEAAKKEYLKALAAYR [V30W], the abundance fitness was -0.319 ± 0.074.

Regarding QKPVSAYALFFRDTQAAIKGQNPNATFGELSKIVASMWDSLGEEQKQVYKRKTEAAKKEYLKALAAYR [V30L], the abundance fitness was -0.119 ± 0.051.

Consider QKPVSAYALFFRDTQAAIKGQNPNATFGESSKIVASMWDSLGEEQKQVYKRKTEAAKKEYLKALAAYR [V30S], for which the abundance fitness was -0.635 ± 0.099.
